Ends that are not written are not given here. * marks the point of attachment. Biotin = O=C1N[C@H]2[C@H](CS[C@H]2CCCCC(=O)*)N1
Legend:
[1] = molecular target: chemokine receptors on THP-1 cells; assay: cell-based or functional assay
[2] = molecular target: T1, Duffy Antigen Receptor for Chemokines (DARC) (human, UniProt Q16570 1-336); assay: DARC binding
T1 chain: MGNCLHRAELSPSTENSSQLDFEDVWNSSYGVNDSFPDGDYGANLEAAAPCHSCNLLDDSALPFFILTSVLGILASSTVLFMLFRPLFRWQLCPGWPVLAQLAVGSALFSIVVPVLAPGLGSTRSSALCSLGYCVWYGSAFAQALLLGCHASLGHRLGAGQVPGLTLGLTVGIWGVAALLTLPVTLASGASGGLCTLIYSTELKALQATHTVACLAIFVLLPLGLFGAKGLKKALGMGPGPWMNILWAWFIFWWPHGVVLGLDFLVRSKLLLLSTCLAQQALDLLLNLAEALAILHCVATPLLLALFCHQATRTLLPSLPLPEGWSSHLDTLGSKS

[3] = molecular target: chemokine receptors on THP-1 cells; assay: binding to chemokine receptors on THP-1 cells; given as 'association constant'
[4] = molecular target: T2, Duffy Antigen Receptor for Chemokines (DARC) (human, UniProt Q16570 1-336); assay: ka for binding to red blood cells divided by ka for binding to THP-1 cells
T2 construct: whole, on cells
T2 sequence (looked up): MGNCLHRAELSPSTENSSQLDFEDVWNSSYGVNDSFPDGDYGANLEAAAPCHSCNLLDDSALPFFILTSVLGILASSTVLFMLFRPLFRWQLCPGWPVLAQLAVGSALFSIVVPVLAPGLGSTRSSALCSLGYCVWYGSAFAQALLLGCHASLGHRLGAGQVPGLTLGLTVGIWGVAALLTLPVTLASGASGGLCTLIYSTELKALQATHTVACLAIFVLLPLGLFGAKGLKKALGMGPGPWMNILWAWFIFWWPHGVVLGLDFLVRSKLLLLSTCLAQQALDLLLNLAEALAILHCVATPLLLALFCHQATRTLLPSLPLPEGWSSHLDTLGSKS

[5] = molecular target: chemokine receptors on THP-1 cells; assay: estimated ka for binding to THP-1 cells, printed under 'AVERAGE ED50 (µM)'
[6] = molecular target: TGF-beta receptor of THP-1 cells; assay: biotinylated peptide binding to THP-1 cells
[7] = molecular target: chemokine receptors on THP-1 cells; assay: biotinylated peptide binding to the surface of THP-1 cells; printed as 'ka' in µM

In the case of SES, the % inhibition of migration induced by RANTES at 100 µM tripeptide [1] is reported as 87%.

KEN showed a % inhibition of migration induced by IL-8 at 100 µM tripeptide [1] of 70% and a % inhibition of migration induced by MCP-1 at 100 µM tripeptide [1] of 21%.

B1: peptide 2(1-14)[MIP1α] (peptide)
peptide: DYFETSSQCSKPGV
notes: also called Pep2[MIP1α]; Pep2(1-14)[MIP1α]
B1 gave a Kd [2] of over 100 µM, a Kd [3] of 0.1 to 0.9 µM and a Duffy selectivity [4] of over 100 ratio. For the same binder, the Kd [5] was 1 to 10 µM.

HEPKGYHANFC (also: biotinylated (position not given here)) [Biotinylated T2] showed an EC50 [6] of 30 µM.

Biotin-EICADPKQKWVQ [N-terminally biotinylated derivative of peptide 3(1-12)[MCP-1]] was tested, and the Kd [7] was 10 µM.

B2: peptide 2(1-15)[SDF1] (peptide)
peptide: HLKILNTPNCALQIV
notes: also called Pep2[SDF1]; Pep2(1-15)[SDF1]
In the case of B2, the Kd [2] is reported as 19 µM, the Duffy selectivity [4] is reported as under 1 ratio and the Kd [5] is reported as 1 to 10 µM.

ELRVIESGPHCANTEI (also called Pep2[IL8]) [Pep2(1-16)[IL8]] gave a Duffy selectivity [4] of under 1 ratio and a Kd [5] of 1 to 10 µM.

For SYRRITSK, the Kd [2] was 22 µM.

SYRRI was tested, and the Kd [2] was over 100 µM.

In the case of DYFETSSQC, the Kd [2] is reported as over 100 µM.

TSSKC showed a Kd [2] of over 100 µM.

VGPKSCQSSTEFYD gave a Kd [2] of over 100 µM.

Work on CPKEAV yielded a Kd [2] of over 100 µM.

CSKPGV was tested, and the Kd [2] was over 100 µM.

Reference: patent US7067117 (CAMBRIDGE UNIVERSITY TECHNICAL SERVICES, dated 2006)
